Target: Foxn1 having a Flag tag (expressed from the Foxn1 expression vector, CMV promoter, in mouse epidermal cells)
Assay: cell-based or functional assay

AFF-4 having a C-Myc tag (expressed from the AFF-4 expression vector, CMV promoter, in mouse epidermal cells)
expression level of luciferase (reporter with a Foxn1 binding region upstream of an SV40 minimum promoter), relative to Foxn1 only = 1: 5 fold

From patent US20110076303A1
